{
  "source": "the nanobody polyreactivity screen of Harvey et al. (2022)",
  "data": [
    {"experiment": "yeast display, Sf9 membrane polyspecificity reagent, FACS + sequencing; frameworks hold sequencing errors", "summary_of_the_method": "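A nanobody's polyreactivity label depends on the gate it was sorted from. Yeast display cells were stained with 10% biotinylated, detergent-solubilized Sf9 membrane reagent for 1 hour at 4 °C, enriched on streptavidin microbeads and sorted by FACS. The low and high (top ~1%) gates were set on anti-HA fluorescence for expression and streptavidin fluorescence for reagent binding.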", "values": [
      {"sequence": "QVQLVESGGGLVQAGGSLRLSCAASGFISVRNAMGWYRQAPGKERELVAAISSGDTTDYADSVKGRFTISRDNAKNTVYLQMISLKPEDTAVYYCAAVYYGRYYYWGQGTQVTVSS", "polyreactivity (PSR sort gate)": "low polyreactivity"},
      {"sequence": "QVQLVESGGGLVQAGGSLRLSCAASGFIVKYNAMAWYRQAPGKERELVAAISYRGTRTYYADSVKGRFTISRDNAKNTVYLQMNSLKPEDTAVYYCNAGLTYNHDPYDYWGQGTQVTVSS", "polyreactivity (PSR sort gate)": "high polyreactivity"},
      {"sequence": "QVQLVESGGGLVQAGGSLRLSCAASGFIYGANAMGWYRQAPGKERALVAAISWNGGRTYYADSVKGRFTISRDNAKKTVYLQMNSLKPEDTAVYYCNARSWYSFQPQDYWGQGTQVTVSW", "polyreactivity (PSR sort gate)": "high polyreactivity"},
      {"sequence": "QVQLVESGGGLVQAGGSLRLSCAASGFIYGSNAMGWYRQAPGKERELVAAISRSGGSTYYADSVKGRFTISRDNAKNTVYLQMNSLKPEDTAVYYCNVDLWTFVYSWWSYDYWGQGTQVTVSS", "polyreactivity (PSR sort gate)": "high polyreactivity"},
      {"sequence": "QVQLVESGGGLVQAGGSLRLSCAASGFIYRDYVMGWYRQAPEKERELVAAISYRGGSTNYADSVKGRFTISRDNAMNTVFLQMNSLKPEDTSVYYCAADQVHKREYEYWGQGTQVTVSS", "polyreactivity (PSR sort gate)": "low polyreactivity"},
      {"sequence": "QVQLVESGGGLVQAGGSLRLSCAASGFIYVYAMGWYRQPPRKERELVAAITATGDSTYYADSVKGRFTISRDNAKNTVYLQMNSLKPEDTAVYYCAAEWHYFVTMYYWGQGTQVTVSS", "polyreactivity (PSR sort gate)": "low polyreactivity"},
      {"sequence": "QVQLVESGGGLVQAGGSLRLSCAASGFIYYRYAMGWYRQAPGKERELVAAISRSGGSTYYADSVKGRFTISRDNAKNTVYLQMNSLNPEDTAVYYCAARDPGGAVGAAFDSWGQCTQVTVSS", "polyreactivity (PSR sort gate)": "low polyreactivity"},
      {"sequence": "QVQLVESGGGLVQAGGSLRLSCAASGFLFYYYAMGWYRQAPGKEREFVAAIRWNGGSTYYADSVKGRFTISRDNAKNTVYLQMNSLKPEDTAVYYCAAVWVQTTYADLYKYYYWGQGTQVTVSS", "polyreactivity (PSR sort gate)": "low polyreactivity"},
      {"sequence": "QVQLVESGGGLVQAGGSLRLSCAASGFMFDGYAMGWYRQAPGKERELVAAINFSGGSTYYADSVKGRFTISRDNAKNTVYLQMNSLKPEETAVYYCNADLEWNWVQFGYGYWGQGTQVTVSS", "polyreactivity (PSR sort gate)": "low polyreactivity"},
      {"sequence": "QVQLVESGGGLVQAGGSLRLSCAASGFMFSSYAMGWYRQAPGKERELVAAISWSDSSTYYADSVKGRFTISRDNAKNTVYLQMNSLKPEDTADYYCAAVIGPDVYYLLYDYWGQGTQVTVSS", "polyreactivity (PSR sort gate)": "low polyreactivity"},
      {"sequence": "QVQLVESGGGLVQAGGSLRLSCAASGFNFDYYAMGWYRPAPGKVRELVAAITSRGGSTYYADSVKGRFTISRDNAKTTVYLQMNILKPEDTAVYYCSALRRSAEYNYWGQGTQVTVSS", "polyreactivity (PSR sort gate)": "high polyreactivity"},
      {"sequence": "QVQLVESGGGLVQAGGSLRLSCAASGFNFGGNAMGWYRQAPGKERELVAAISGSGGSTYYADSVKGRFTISRDNAKNTVYLQMNSLKPEDTAVYYCAVKFPPRKSYGYYYWGQGTQVTVSS", "polyreactivity (PSR sort gate)": "high polyreactivity"},
      {"sequence": "QVQLVESGGGLVQAGGSLRLSCAASGFNFRGYAMGWYRQAPGKERELVAAINSGDSTNYADSVKGRFTISRDNAKNTVYLQMNSLKPEDTAVYYCAASIYAALNGGPGYDYWGQGTQVTVSS", "polyreactivity (PSR sort gate)": "low polyreactivity"},
      {"sequence": "QVQLVESGGGLVQAGGSLRLSCAASGFNFRYNTMGWYRKAPRKERELVAAISVSGARTYYADSVKGRFTISRDNAKNTVYLQMNSLKPEDTAVFYCNRRYTFYSRYNNDYWGQGTQVTVSS", "polyreactivity (PSR sort gate)": "high polyreactivity"},
      {"sequence": "QVQLVESGGGLVQAGGSLRLSCAASGFNFSKYAMGWYRQAPGKERELVARINYNGGSTYYADSVKGRFTISRDNAKNTVYLQMNSLKPEDTAVYYCALVWRFSTRYYYWGQGTQVTVSS", "polyreactivity (PSR sort gate)": "high polyreactivity"},
      {"sequence": "QVQLVESGGGLVQAGGSLRLSCAASGFNFVHYAMGWYRPAPGKDRELVAAISKRGGTTYYADSVKGRFTISRDNAKNTVYLQMNSLKPEDSAVYYCNADVTNWEDDYYYWGQGTQVNVSS", "polyreactivity (PSR sort gate)": "high polyreactivity"},
      {"sequence": "QVQLVESGGGLVQAGGSLRLSCAASGFNFVSYAMGWYRKAPGKERELVAVIDNSDGDTYYADSVKGRFTISRDNAKNTVYLQMNSLKPEDTAVYYCARDVSARGYLPFDYWGQGTQVTVSS", "polyreactivity (PSR sort gate)": "low polyreactivity"},
      {"sequence": "QVQLVESGGGLVQAGGSLRLSCAASGFNFVYYAMGWYREAPGKERELVAVISWSGGSTNYADSVKGRFTISRDNAKNTVYLQMNSLKPEDTAVYYCAADAYAYTPYYGYRVDYWGQGTQVTVSS", "polyreactivity (PSR sort gate)": "high polyreactivity"},
      {"sequence": "QVQLVESGGGLVQAGGSLRLSCAASGFNFWRNAMGWYRQAPGKERELVAVITWSGGRTYYADSVKGRFTFSRDNAKNSVYLQMNSLKPEDSAVYYCSTEIVGPHFDYWGQGTQVTVSS", "polyreactivity (PSR sort gate)": "low polyreactivity"},
      {"sequence": "QVQLVESGGGLVQAGGSLRLSCAASGFNYYTMGWYRQAPGKERELVAAINYSGGRTYYADSVKGRFTISRDNAKNTVYLQMNSLKPEDTAVYYCNTARSPYDHRPERSYDYWGLGTQVTVSS", "polyreactivity (PSR sort gate)": "high polyreactivity"},
      {"sequence": "QVQLVESGGGLVQAGGSLRLSCAASGFSFARNAMGWYRQAPGKERELVAAISDSGGRTYYADSVKGRFTISRDIAKNTVYLQMNSLKPEDTAVYYCAAALTFRMDYWGQGTQVTVSS", "polyreactivity (PSR sort gate)": "high polyreactivity"},
      {"sequence": "QVQLVESGGGLVQAGGSLRLSCAASGFSFKRYAMGWYRQAPGKERELVADITRGGRTNYADSVKGRFTISRDNAKNTVYLQINSLKPEDTAVYYCNAVRQKYRFEYDYWGQGTQVTVSS", "polyreactivity (PSR sort gate)": "high polyreactivity"},
      {"sequence": "QVQLVESGGGLVQAGGSLRLSCAASGFSFKYYAMGWYRQAPGKERELVATIRRGGSTYADSVKGRFTISRDNAKNSVYLQMNSLKPDDTAVYYCATRISSSTVPLYYFSGYNYWGQGTQVTVSS", "polyreactivity (PSR sort gate)": "high polyreactivity"},
      {"sequence": "QVQLVESGGGLVQAGGSLRLSCAASGFSFRQYAMGWYRQAPGKERELVAAISRSGSRTYYADSVKGRFTLSRDNAKNTGYLQMNSLKAEDTAVYYCNAVFSTFTGEYYWGQGTQVTVSS", "polyreactivity (PSR sort gate)": "high polyreactivity"},
      {"sequence": "QVQLVESGGGLVQAGGSLRLSCAASGFSFSDYPMGWYRQAPGKERELVAAISGSGGSTYYADSVKGRFTISRDTAKNSVYLQMNSLKPEDTSVYYCNKGYARRYASGYDYWGQGTQVTVSS", "polyreactivity (PSR sort gate)": "high polyreactivity"},
      {"sequence": "QVQLVESGGGLVQAGGSLRLSCAASGFSIYRNSMGWYRPAPGKERELVAGISSGGSTNYADSVKGRFTISRDNAKNTVYLQMNSLKPEDTAVYYCATRVYALWFGRYDYWGQGTQVTVSS", "polyreactivity (PSR sort gate)": "high polyreactivity"},
      {"sequence": "QVQLVESGGGLVQAGGSLRLSCAASGFTAVGNAMGWYRPAPGKERELVASITNGGSTNYADSVKGRFTISRDNAKNTVYIQMNSLKPEDTAVYYCATDTYFDYTGALSHSGYYYWGQGTQVTVSS", "polyreactivity (PSR sort gate)": "low polyreactivity"},
      {"sequence": "QVQLVESGGGLVQAGGSLRLSCAASGFTCPSYNMRWYRQAPGKERELVAAISRSDGNTYYADSVKGRFTISRDNAKNTVYLQMNSLKPEDTEVYYCAAEYEAYAYEYWGQGTQVTVSS", "polyreactivity (PSR sort gate)": "high polyreactivity"},
      {"sequence": "QVQLVESGGGLVQAGGSLRLSCAASGFTCPYYMGWYRQAPGKERELVADISWSDGSTYYADSVKGRFTISRDNAKNTVSLQMNSLKPEDTAVYYCAADYVSSWFYLPEYDYWGQGTQVTVSS", "polyreactivity (PSR sort gate)": "high polyreactivity"},
      {"sequence": "QVQLVESGGGLVQAGGSLRLSCAASGFTFADNAMGGYREAPGKERQFVASITYSTGSTYADSVKGRFTISRDNAKNTVYLQMHSLTPEDTAVYYCAVDNISNWAVENDYWGQGTQVTVSS", "polyreactivity (PSR sort gate)": "low polyreactivity"},
      {"sequence": "QVQLVESGGGLVQAGGSLRLSCAASGFTFAFYAMGWYRQAPGKERELVAAISRRGGSTTYADSVKGRFTISRDNAKNTVYLQMNSLKPEDTAVYYCAAGWRGGRYRYFAYDYWGQGTQVTVSS", "polyreactivity (PSR sort gate)": "high polyreactivity"},
      {"sequence": "QVQLVESGGGLVQAGGSLRLSCAASGFTFAGYAMGWYRQAPGKDRELVAAISWSGGRTYYADSVKGRFTISRDNAKNTVYLQMNSLKPEDTAVYYCAKLTLSSRWYYIYDYWGQGTQVTVSS", "polyreactivity (PSR sort gate)": "high polyreactivity"},
      {"sequence": "QVQLVESGGGLVQAGGSLRLSCAASGFTFAGYAMGWYRQAPGKERELVAAISISGGRTYYADSVKGRFTSSRDYAKNTVYLQMNSLKPEDTAVYYCNAASREPSGYDYWGQGTQVTVSS", "polyreactivity (PSR sort gate)": "high polyreactivity"},
      {"sequence": "QVQLVESGGGLVQAGGSLRLSCAASGFTFAGYGMGWYRQAPGKERELVAAISSSGGSTYYADSVKGRFTISRDNAKNTVYLQMNSLIPEDTAVYYCAAGRPYGDGDYWGQGTQVNVSS", "polyreactivity (PSR sort gate)": "high polyreactivity"},
      {"sequence": "QVQLVESGGGLVQAGGSLRLSCAASGFTFANYAMGWYRQAPGKERELVASITRSGGSTYYADSVKGRFTISRDNAKNTVYLQMNSLKPEDTAVYYCAKDRRRWYYTRDYWGQGTQVTVSS", "polyreactivity (PSR sort gate)": "low polyreactivity"},
      {"sequence": "QVQLVESGGGLVQAGGSLRLSCAASGFTFAPNPMGWYRPAPGKEWELVAAITRSGGSTYYADSVKGRFTISRDNAKNTVYLQMYSLKPEDTAVYYCNAGRRGSGYVYWGQGTQVTVSS", "polyreactivity (PSR sort gate)": "high polyreactivity"},
      {"sequence": "QVQLVESGGGLVQAGGSLRLSCAASGFTFAPYDMGWYRQAPGKERELVATISWSGARTYYADSVKGRFTISRDNAKNTVYLQMNSLKAEDTAVYYCAAAYSSSKSSGNYYYWGQGTQVTVSS", "polyreactivity (PSR sort gate)": "high polyreactivity"},
      {"sequence": "QVQLVESGGGLVQAGGSLRLSCAASGFTFARNAMGWYRQATGKERELVASITQRGGSTNYADSVKVRFTISRDNAQNTVYLQMNSLKPEDTAVYYCNKASQLYYIQGTYSYGYWGQGTQVTVSS", "polyreactivity (PSR sort gate)": "low polyreactivity"},
      {"sequence": "QVQLVESGGGLVQAGGSLRLSCAASGFTFARNGMGWYRQATVKEREFVAAITRSGGRTYYADSVKGRFTISRDNAKNTVYLQMNSLKPEDTAVYYCAAATSYGKSEYDYWGQGTQVTVSS", "polyreactivity (PSR sort gate)": "high polyreactivity"},
      {"sequence": "QVQLVESGGGLVQAGGSLRLSCAASGFTFARYALGWYRQAPGKERELVAGITYRGGRTYYADSVKGRFTISRDNEKNTVYLQMNRLKPEDTAVYYCARYGPIKYYSWGQGTQVTVSS", "polyreactivity (PSR sort gate)": "high polyreactivity"},
      {"sequence": "QVQLVESGGGLVQAGGSLRLSCAASGFTFARYAMGWYRQAPGKERELVAAISRGTTTYYADSVKGRFTISRDNAKNTVYLQMNSLKPEDTAVYYCAARAVSEYFVVPFYYWGQGTQVTVSS", "polyreactivity (PSR sort gate)": "high polyreactivity"},
      {"sequence": "QVQLVESGGGLVQAGGSLRLSCAASGFTFARYSMGWYRQAPGKERELVAAISRGGDSTYYADSVKGRFTISRDNAKNTVYLQMNSLKPEDSAVYYCAADISHRGYREYYSWGQGTQVTVSS", "polyreactivity (PSR sort gate)": "high polyreactivity"},
      {"sequence": "QVQLVESGGGLVQAGGSLRLSCAASGFTFASNDMGWYRPAPGKERELVAAITKGGGRTYYADSVKGRFTISRDNAKNTVYLLMNSLKPEDTAVYYCAASQLIKYDYWGQGTEVTVSS", "polyreactivity (PSR sort gate)": "low polyreactivity"}
    ]}
  ]
}
